From publication PMC6978808, “In Situ Structure of an Intact Lipopolysaccharide-Bound Bacterial Surface Layer” (Cell, 2020)
Several values for one entry are separate records, joined by “and”; a condition that tells them apart may be missing. Identical values can stand only once.

Assays:
[1] = target: the molecule itself; test: cryo-EM structure; single-particle cryo-EM of the purified RsaANTD:PS complex, 3.7 Å; PS and Ca2+ bound
[2] = target: the molecule itself; test: native MS; RsaANTD:PS sample after removal of Ca2+ on Zeba micro spin desalting columns
[3] = target: the molecule itself; test: native MS; purified RsaANTD:PS complex with Ca2+; Q-Exactive UHMR; tandem MS (HCD 220 V) to assign the oligomers

B1: N-terminal domain of RsaA (RsaANTD) (domain or fragment, Caulobacter crescentus)
chain: AYTTAQLVTAYTNANLGKAPDAATTLTLDAYATQTQTGGLSDAAALTNTLKLVNSTTAVAIQTYQFFTGVAPSAAGLDFLVDSTTNTNDLNDAYYSKFAQENRFINFSINLATGAGAGATAFAAAYTGVSYAQTVATAYDKIIGNAVATAAGVDVAAAVAFLSRQANIDYLTAFVRANTPFTAAADIDLAVKAALIGTILNAATVSGIGGYATATAAMINDLSDGALSTDNAAGVNLFTAYPSSGVSGSEN
notes: S-layer protein RsaA of Caulobacter crescentus (1026 residues), N-terminal domain; the introduction defines RsaANTD as residues 1-249; residues 2-243 are built in the cryo-EM model; Cleavage by TEV protease after Gln would leave Glu-Asn-Leu-Tyr-Phe-Gln; also called inner domain of the S-layer; source: C. crescentus rsaATEV250 strain
stoichiometry N [1]: 21 and 20 | stoichiometry N [2]: 4 | stoichiometry N [3]: 2
